± gives the standard deviation of the averaged measurements.
system: ATP; assay: switch fluorescence ratio, 500 uM ATP over buffer (Cy3 cluster intensity, sum of 5 cycles each) (fold (ratio)); higher = stronger signal-on switching upon ATP binding; sequences stand for … in TCGTCGGCAGCGTCAGATGTGTATAAGAGACAGTTTTTTTTTTTTTTTTTTTTTTTTT…TC; conditions: aptamer strand: ATP DNA aptamer (quencher-CACCTGGGGGAGTATTGCGGAGGAAGG + anchor), 100 nM annealed; ATP concentration: 500 uM
Outline: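 Cy3-labelled switching-strand clusters on a modified Illumina MiSeq flow-cell were annealed to 100 nM quencher-labelled ATP aptamer, imaged in selection buffer, then imaged after 15 min with 500 uM ATP at 22 °C. Five buffer/ATP cycles ran, with NaOH stripping and re-annealing between them. The fluorescence ratio is summed target-cycle over summed buffer-cycle Cy3 intensity per cluster, averaged per switch-domain sequence. Clusters outside 100-1000 RFU were excluded.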
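Also: ATP exposure 15 min at 22 °C before imaging.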

TTGAAACAGA and CCCATTTGCT are within error of each other in switch fluorescence ratio: 0.985 ± 0.038 for the first, 1.02 ± 0.03 for the second.

Compared with TAAGGCTACC, AGGTATCAGA is lower in switch fluorescence ratio: 1.048 ± 0.004 for the first, 0.972 ± 0.021 for the second.

Compared with AGTTAGTGGA, ATATTGGCAT is higher in switch fluorescence ratio: 0.9924 ± 0.00044 for the first, 1.02 ± 0.026 for the second.

TTTTTAGAAT and GTTGGCAGTG are within error of each other in switch fluorescence ratio: 0.993 ± 0.027 for the first, 0.978 ± 0.033 for the second.

TATGCTGCTG and AATTGTTTCA are within error of each other in switch fluorescence ratio: 1.01 ± 0.036 for the first, 0.974 ± 0.016 for the second.

TTACCGGCGC and GCAGGGGAGT are within error of each other in switch fluorescence ratio: 1.14 ± 0.18 for the first, 1.17 ± 0.29 for the second.

TTTCATCGTA and ACACTTTTCG are within error of each other in switch fluorescence ratio: 0.99 ± 0.049 for the first, 1.01 ± 0.035 for the second.

TTTGGATGGT and AGTTGAGTTA are within error of each other in switch fluorescence ratio: 0.996 ± 0.02 for the first, 1 ± 0.011 for the second.

ACGGGGCGTT and CGGCTGAATT are within error of each other in switch fluorescence ratio: 1.01 ± 0.012 for the first, 1 ± 0.003 for the second.

ATGGTTCCTG and TGATGCATGG are within error of each other in switch fluorescence ratio: 1.03 ± 0.078 for the first, 1.05 ± 0.048 for the second.

First: TTCTAAAGGT
Second: TCCGATGTTT
The switch fluorescence ratio of the first is lower: 1.02 ± 0.04 for the first, 1.76 ± 0.27 for the second.

GATACGGGGA and GGGGCGCGGG are within error of each other in switch fluorescence ratio: 0.988 ± 0.029 for the first, 1.03 ± 0.033 for the second.

First: TTTTCGGTCG
Second: CTTCGGGCGA
The switch fluorescence ratio of the first is lower: 0.999 ± 0.046 for the first, 1.1 ± 0.023 for the second.

GGATGCAGTT and GAGTAAGTA are within error of each other in switch fluorescence ratio: 0.99 ± 0.026 for the first, 1.002 ± 0.0064 for the second.

TGTTTATTGA and GCTGAGGGAA are within error of each other in switch fluorescence ratio: 0.989 ± 0.013 for the first, 1.01 ± 0.028 for the second.

GAGATAGTAG and GGGGATGCGC are within error of each other in switch fluorescence ratio: 1 ± 0.015 for the first, 1.02 ± 0.011 for the second.

GGTTGGGGAC and GATGATGTAT are within error of each other in switch fluorescence ratio: 0.971 ± 0.022 for the first, 1.01 ± 0.033 for the second.

TGGTTTTCTG and TCAGCGGGGA are within error of each other in switch fluorescence ratio: 1.03 ± 0.051 for the first, 1.001 ± 0.0066 for the second.

TACCCGCGCG and GTAATCTCTG are within error of each other in switch fluorescence ratio: 1.026 ± 0.003 for the first, 1.01 ± 0.028 for the second.

TACAGTAGGA and AGCAAGGATT are within error of each other in switch fluorescence ratio: 1.06 ± 0.064 for the first, 1.1 ± 0.1 for the second.

TTTTACGCTG and ATCCTGCTTT are within error of each other in switch fluorescence ratio: 1 ± 0.036 for the first, 1.01 ± 0.069 for the second.

CCGGGGGACC and TGTGAAACAA are within error of each other in switch fluorescence ratio: 1.04 ± 0.021 for the first, 1.01 ± 0.03 for the second.

TTAATTTGGA and TGGTTGGGTT are within error of each other in switch fluorescence ratio: 1.014 ± 0.0088 for the first, 1 ± 0.021 for the second.

CAAGTTCGTG and TTTTTGACTG are within error of each other in switch fluorescence ratio: 1.002 ± 0.0089 for the first, 0.994 ± 0.075 for the second.

ACGCGGGTTT and GCTACTTTGG are within error of each other in switch fluorescence ratio: 1.02 ± 0.02 for the first, 1.06 ± 0.048 for the second.

First: TACTCGGGCT
Second: ATCAGTGGTC
The switch fluorescence ratio of the first is higher: 1.017 ± 0.0044 for the first, 0.936 ± 0.021 for the second.

AAAATTGTCT and TGATGGGGCG are within error of each other in switch fluorescence ratio: 0.981 ± 0.023 for the first, 0.982 ± 0.023 for the second.

Going from TTTGACTATG to TAAGGCAC, the switch fluorescence ratio rises from 0.999 ± 0.022 to 1.04 ± 0.017.

TTTTGATCGT and GTTGCTTAGT are within error of each other in switch fluorescence ratio: 0.962 ± 0.023 for the first, 0.9724 ± 0.0038 for the second.

CAGAGGCCCG and TATAAAAGTC are within error of each other in switch fluorescence ratio: 1.02 ± 0.032 for the first, 0.992 ± 0.023 for the second.

GGCGCGAGAG and AATTTACGAT are within error of each other in switch fluorescence ratio: 1.032 ± 0.0092 for the first, 1.02 ± 0.014 for the second.

TGAGAATGTT and ATCGGCATGC are within error of each other in switch fluorescence ratio: 1.09 ± 0.19 for the first, 1.19 ± 0.019 for the second.

TTGACGTAAA and GGTCCTAGTC are within error of each other in switch fluorescence ratio: 1.61 ± 0.56 for the first, 0.946 ± 0.12 for the second.

Compared with TTGTAAGTT, TAAAAGTTTA is higher in switch fluorescence ratio: 0.99664 ± 0.00012 for the first, 1.04 ± 0.016 for the second.

TCAGTTGTTG and TCCCTGGGGG are within error of each other in switch fluorescence ratio: 1 ± 0.045 for the first, 1.08 ± 0.11 for the second.

Compared with ATGTAGCATT, AAAAGCGGTA is lower in switch fluorescence ratio: 1.21 ± 0.0026 for the first, 1 ± 0.054 for the second.

AATGGTGTGT and CCGGTGTGTT are within error of each other in switch fluorescence ratio: 1.01 ± 0.018 for the first, 1.03 ± 0.086 for the second.

AAGTCCAATG and TAGAAAATAA are within error of each other in switch fluorescence ratio: 1.01 ± 0.023 for the first, 0.995 ± 0.021 for the second.

ATCTGGTATG and GATTGCGAGA are within error of each other in switch fluorescence ratio: 0.957 ± 0.037 for the first, 1.01 ± 0.036 for the second.

AAAATGAGTG and AAATGGGAGA are within error of each other in switch fluorescence ratio: 0.985 ± 0.021 for the first, 0.992 ± 0.026 for the second.

AGGGTGTTTT and ATGTGCTTGG are within error of each other in switch fluorescence ratio: 1.01 ± 0.028 for the first, 1.02 ± 0.027 for the second.

ATATAGGGGA and GAAAATTGGT are within error of each other in switch fluorescence ratio: 1.02 ± 0.051 for the first, 0.997 ± 0.023 for the second.

TCAAGGTTCT showed a switch fluorescence ratio of 0.998 ± 0.014.

— the supplement of paper PMC10126150
